Paper PMC12680531, “A novel TM4SF4-targeting therapeutic antibody candidate with antitumor activity by blocking IGF1R and CD44 signaling and downregulating PD-L1 and B7-H4” (Theranostics, 2026)
No end group written: not given here.

Target: T1, biotinylated hTM4SF4 (T126-E140) peptide containing a GSAGGS spacer (Homo sapiens, also: biotin, position not given here, GSAGGS spacer, position not given here)
T1 construct: human TM4SF4, residues T126-E140 of the large extracellular loop; also called biotinylated hTM4SF4 peptide; hTM4SF4 peptide
T1 chain: TWGYPFHDGDYLNDE
Test: SPR; Biacore T200; biotinylated hTM4SF4 peptide with GSAGGS spacer immobilised on a streptavidin chip; antibodies in two-fold dilutions (128-1 nM or 512-16 nM) in HBS-EP+; 25°C; 30 μL/min; 1:1 binding model
Conditions: both partners purified

B1: murine anti-hTM4SF4 monoclonal antibody 2B7 (antibody, V domains shown)
VH: EVKLEESGPGILQPSQTLSLTCSFSGFSLSTYGIGVSWIRQPSGKGLEWLAHIWWNDNKYYNTALKSRLTISKDTSNNQVFLKIASVDTADTATYYCARKEGSSAPFAYWGQGTLVTVSA
VL: not shown
notes: VH of murine 2B7; mouse IgG1 heavy chain constant region; Vκ of murine 2B7; mouse kappa light chain constant region; murine IgG1, kappa; also called murine 2B7; anti-hTM4SF4 mAb 2B7; source: murine hybridoma, purified from culture supernatant (protein G chromatography)
  Kd: 2.66 nM
